Here are results for six molecules from publication PMC11879689, “Integrative in silico and biochemical analyses demonstrate direct Arl3-mediated ODA16 release from the intraflagellar transport machinery” (The Journal of Biological Chemistry, 2025).

Assay [1] deals with ODA16 (Chlamydomonas reinhardtii) (UniProt Q3Y8L7). The assay is described as follows: ITC. The settings on record: cited from earlier work.
The target of assay [2] is CrODA16 C-terminal β-propeller, CrODA16C(80-423) (Chlamydomonas reinhardtii) (UniProt Q3Y8L7). The experiment in a line: ITC; 25 °C, MicroCal iTC200; 10 mM HEPES pH 7.5, 200 mM NaCl, 0.5 mM TCEP; 20 μM CrODA16 in the cell, 200 μM IFT46 peptide or CrIDA3 in the syringe. Background: ITC needs no label: the signal is the heat of the interaction.
For assay [3], the target named is T1, full-length CrODA16 (CrODA16fl) (Chlamydomonas reinhardtii, UniProt Q3Y8L7 1-446).
T1 construct: ODA16, Chlamydomonas reinhardtii, full length (N-terminal domain residues 1-80, C-terminal beta-propeller residues 80-445); it may be the same protein as CrODA16-HT
T1 sequence (looked up): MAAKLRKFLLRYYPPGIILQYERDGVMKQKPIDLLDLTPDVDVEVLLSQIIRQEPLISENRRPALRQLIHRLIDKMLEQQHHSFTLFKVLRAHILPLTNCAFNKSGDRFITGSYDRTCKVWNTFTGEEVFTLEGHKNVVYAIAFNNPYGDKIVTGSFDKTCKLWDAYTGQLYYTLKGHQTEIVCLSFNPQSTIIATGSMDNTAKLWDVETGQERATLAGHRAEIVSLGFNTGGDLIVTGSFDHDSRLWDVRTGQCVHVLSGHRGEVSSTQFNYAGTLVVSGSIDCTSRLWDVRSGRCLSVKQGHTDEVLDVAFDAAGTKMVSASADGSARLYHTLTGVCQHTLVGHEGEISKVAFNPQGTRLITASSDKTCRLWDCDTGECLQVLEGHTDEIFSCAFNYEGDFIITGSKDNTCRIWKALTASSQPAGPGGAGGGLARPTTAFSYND
The assay is described as above.

Assay [4] concerns the target T2, hexa-His-tagged CrODA16 (CrODA16-HT) (Chlamydomonas reinhardtii, UniProt Q3Y8L7 1-446).
T2 construct: ODA16, Chlamydomonas reinhardtii; Bait on nickel resin
T2 sequence (looked up): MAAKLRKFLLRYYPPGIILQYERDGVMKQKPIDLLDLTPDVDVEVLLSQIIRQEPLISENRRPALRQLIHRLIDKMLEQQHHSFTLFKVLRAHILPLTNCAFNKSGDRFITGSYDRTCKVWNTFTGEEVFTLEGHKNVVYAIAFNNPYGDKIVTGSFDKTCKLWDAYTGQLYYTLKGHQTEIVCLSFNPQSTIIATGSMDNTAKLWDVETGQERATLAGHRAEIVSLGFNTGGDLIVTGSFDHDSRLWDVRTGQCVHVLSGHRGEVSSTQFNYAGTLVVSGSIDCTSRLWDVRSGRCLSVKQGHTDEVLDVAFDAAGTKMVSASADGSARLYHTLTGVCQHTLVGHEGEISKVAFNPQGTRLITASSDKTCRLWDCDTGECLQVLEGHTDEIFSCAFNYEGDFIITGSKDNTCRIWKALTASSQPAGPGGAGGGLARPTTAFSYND
The assay is described as follows: pull-down; CrODA16-HT immobilised on nickel resin; two preys added together (CrIFT46 with CrIDA3, also at 3:1 excess of CrIFT46; CrIFT46 with CrArl3), beside each prey alone. The conditions noted are these: both partners purified.

Assay [5] concerns the target T1, full-length CrODA16 (CrODA16fl). The assay is described as follows: pull-down; competitive binding (titration) assay: GST-tagged bait (10 μM) pre-complexed with CrODA16 (20 μM) on GSH resin, washed, then untagged competitor at rising concentrations, 1 h 4 °C; eluted with 33 mM glutathione, SDS-PAGE. The settings on record: both partners purified.
For assay [6], the target named is T2, hexa-His-tagged CrODA16 (CrODA16-HT). The assay is described as follows: pull-down; CrODA16-HT (10 μM) immobilised on nickel resin, one prey (20–30 μM), 1 h 4 °C; 10 mM HEPES pH 7.5, 200 mM NaCl, 2 mM MgCl2, 1 mM DTT; eluted with 500 mM imidazole, SDS-PAGE; CrArl3 nucleotide-free. The settings on record: both partners purified.

Where two headings read alike, the source gives them in different places.

Consider IFT46 (from UniProt A2T2X4), for which the Kd (in general, the concentration at which binding is half-saturated) in assay [1] was 200 nM. Take “CrIDA3 (residues 1-166 and 241-366), untagged (domain or fragment)”: in assay [2], the Kd came out at 288 nM. Moreover, in assay [3], the Kd amounted to 1770 nM and the stoichiometry N (commonly a count of units in the complex or per binding partner) turned out to be 0.996.

B1: CrIFT46 (wild type, untagged) (natural protein, Chlamydomonas reinhardtii, UniProt A2T2X4 1-344, looked up)
chain: MDDSMDYPDRDGDDLDQFQGTARSQVVQNQPHDEEVNLSESESFAGADEPPAAPRDASLIESHDMDEGPAAPARTLSPTGYEAGKHAPGGIANSDEAPPGAYNAQEYKHLNVGEDVRELFSYIGRYKPQTVELDTRIKPFIPDYIPAVGGIDEFIKVPRPDTKPDYLGLKVLDEPAAKQSDPTVLTLQLRQLSKEAPGAKADMVGRLEHTDENKAKKIQQWIASINDIHKAKPAATVNYSKRMPEIEALMQEWPPEVETFLKTMHMPSGDVELDIKTYARLVCTLLDIPVYDDPVESLHVLFTLYLEFKNNPIFRQHMEMENKLDGMSGGGGGMMGGGADVLGL
notes: IFT46, Chlamydomonas reinhardtii; also called WT CrIFT46
Take B1: the binding result in assay [4] and in assay [5] was “binds” each time.

B2: GST-CrIFT46 (natural protein, Chlamydomonas reinhardtii, UniProt A2T2X4 1-344, looked up)
chain: MDDSMDYPDRDGDDLDQFQGTARSQVVQNQPHDEEVNLSESESFAGADEPPAAPRDASLIESHDMDEGPAAPARTLSPTGYEAGKHAPGGIANSDEAPPGAYNAQEYKHLNVGEDVRELFSYIGRYKPQTVELDTRIKPFIPDYIPAVGGIDEFIKVPRPDTKPDYLGLKVLDEPAAKQSDPTVLTLQLRQLSKEAPGAKADMVGRLEHTDENKAKKIQQWIASINDIHKAKPAATVNYSKRMPEIEALMQEWPPEVETFLKTMHMPSGDVELDIKTYARLVCTLLDIPVYDDPVESLHVLFTLYLEFKNNPIFRQHMEMENKLDGMSGGGGGMMGGGADVLGL
notes: IFT46, Chlamydomonas reinhardtii; also called GST-tagged CrIFT46
With B2, the binding result in assay [5] is recorded as “binds”.

B3: CrIFT46(23-44) peptide (peptide, UniProt A2T2X4 23-44, looked up)
peptide: RSQVVQNQPHDEEVNLSESESF
notes: IFT46, Chlamydomonas reinhardtii, residues 23-44; R23 and F44 mark the ends of the peptide; also called IFT46 peptide; source: synthetic peptide
Turning to B3, the Kd in assay [3] (both partners purified) is 1000 ± 380 nM.

B4: CrArl3_Q70L (GTP-locked, full length) (enzyme, Chlamydomonas reinhardtii, UniProt A8ISN6 1-177, looked up)
chain: MGLLSLIRGLKKKEGEARILVLGLDNAGKTTILKALSEEDITTITPTQGFNIKSLSRDGFNLKIWDIGGLKSIRPYWRNYFDQTDALIYVIDSADSKRLSESEFELTELLQEEKMTGVPLLVFANKQDLVGALAADEIASTLDLTSIRDRPWQIQACSAKQGTGLKEGMEWMMKQVK
notes: Arl3, Chlamydomonas reinhardtii, with Q70L; codon-optimised synthetic gene; Cloned with C-terminal TEV-His8; Used nucleotide-free or loaded with GTP; also called CrArl3_Q70L-FL
As to B4, in assay [6], the binding result was “binds”.
